According to publication PMC11417211:

Experiments:
[1] = molecular target: Cathepsin G from human leukocytes (human) (UniProt P08311)
[2] = molecular target: elastase from porcine pancreas (porcine) (UniProt P00772)
[3] = molecular target: α-chymotrypsin from bovine pancreas (bovine)

Chain of UniProt P08311 (P08311 21-244): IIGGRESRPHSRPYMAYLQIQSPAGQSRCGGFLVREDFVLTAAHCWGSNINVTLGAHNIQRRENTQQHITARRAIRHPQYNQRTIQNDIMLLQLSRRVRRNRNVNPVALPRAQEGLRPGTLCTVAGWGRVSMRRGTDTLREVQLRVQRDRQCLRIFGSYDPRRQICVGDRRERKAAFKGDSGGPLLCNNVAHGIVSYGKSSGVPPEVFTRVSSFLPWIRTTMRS
Chain of UniProt P00772 (P00772 27-266): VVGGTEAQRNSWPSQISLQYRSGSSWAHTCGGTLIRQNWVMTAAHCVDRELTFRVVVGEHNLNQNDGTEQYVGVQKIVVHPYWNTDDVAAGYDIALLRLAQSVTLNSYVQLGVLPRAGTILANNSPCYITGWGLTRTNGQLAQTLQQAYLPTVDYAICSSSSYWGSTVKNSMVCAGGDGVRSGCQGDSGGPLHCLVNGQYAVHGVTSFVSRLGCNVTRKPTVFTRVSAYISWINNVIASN

Question: Which decrease of the proteolytic activity of the protease (110 nM) after preincubation with 1 μM eHAMpin-1 for 30 min at 37 °C; chromogenic substrate [1] does the source give for “E. coli expressed Hyalomma anatolicum serpin-1 (eHAMpin-1) (natural protein)” here?
Answer: The decrease of the proteolytic activity of the protease (110 nM) after preincubation with 1 μM eHAMpin-1 for 30 min at 37 °C; chromogenic substrate was over 90%.

Question: And the decrease of the proteolytic activity of the protease (100 nM) after preincubation with 1 μM eHAMpin-1 for 30 min at 37 °C; chromogenic substrate [2]?
Answer: The decrease of the proteolytic activity of the protease (100 nM) after preincubation with 1 μM eHAMpin-1 for 30 min at 37 °C; chromogenic substrate was over 45%.

Question: What about the decrease of the proteolytic activity of the protease (96 nM) after preincubation with 1 μM eHAMpin-1 for 30 min at 37 °C; chromogenic substrate [3] of the same substance?
Answer: Its decrease of the proteolytic activity of the protease (96 nM) after preincubation with 1 μM eHAMpin-1 for 30 min at 37 °C; chromogenic substrate is over 90%.
